# Data from the domain aggregation screens of Martell et al. (2025).
# Experiment: soluble fraction after stress (log2 fold change); higher = more stays soluble; pooled small domains, quantitative proteomics
# Conditions: stress: pH 4
# Procedure, shortened: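 Custom libraries of small protein domains were pooled and measured with high-throughput quantitative proteomics after pH 4 stress. The read-out is the fold change in the amount of each domain that stays soluble after the acid stress, taken as a measure of aggregation propensity. Fold changes are on a log2 scale, and higher values mean more of the domain stayed soluble.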
sequence,measurement,value
HMGQGAASAPLRELGVDPVSEKQMVLKDGRFGPYVTDGETNASLRKGDEVETITDERASELLQMRRDAGPS,soluble fraction (log2),0.0347
HMTFEPVYDENSRILILGTFPSVKSREQQFYYGHPQNRFWKLLAALTGWKVPKTISEKKELLLQNGIA,soluble fraction (log2),-0.665
HMNSILFAITKEGGVVYGGKPVGVNGVRPLVRRLLQSEEMPVILQVDEKADAGLVIRVIDESKLGGASKV,soluble fraction (log2),-0.196
HMQKIENYDQFVQAFKRLSGLDLKLYKENQMKRRINNFINNHGFKENYDQFFQAITGNKELYNAFFKHLTI,soluble fraction (log2),-0.395
HMGVTDSSYNVLRRQILEMLSVQQRTPADLARLIEADKEEIAAVIRFLLDKGEIQMEDGMLQTK,soluble fraction (log2),-0.151
HMGFAEFWLAYPKKVGKGEAERKWKTLKPDAGAVLSAVKRQSASEQWRKDGGRYIPNPATWLHQRRWE,soluble fraction (log2),0.243
HMRESDQSTVELSLERTIQEALMVNPRTSSVEEFSFEWGTGRVKVSFIVYSVDGEPFTVDSIIE,soluble fraction (log2),-1.19
HMGDADDLTRIKGIGPKLSKTLNELGIYHFRQIAGWQSDEADWVDDYLSFKGRVMREQWIEQAQKFAS,soluble fraction (log2),-0.292
HMNEFGIPDKKLQDIETRVNSMSLEQLNAARSMLIDEQEALNSSTGSASSGRLKEIAAELSTIQKALIAIA,soluble fraction (log2),-0.0513
HMDTHDVQVPQEGQGLRLDLFLTDHIEGSRSFIQTIIKDGHVILNGKKAKANSRLNEGDYVVWSIPKPE,soluble fraction (log2),-0.37
HMESEAKLGVAFNGKTRFDMTFPADADNKTIEEAVLADERAQKYLEGFQVAKVIIVPKRMVNIVLK,soluble fraction (log2),≥ 0.43
HMGLSARIAQRIHGLRTAQRMSLEALAARSGVSRSMISLIERNEASPTAVVLEKIATGLNVVLAALFDTP,soluble fraction (log2),-0.324
HMHKKQEVQDSIDAAEEFMRASGVPAELITSKRAYAVKAIYADAVDKGTPDEIVKKDGMIVALISQMRS,soluble fraction (log2),-0.159
HMDITGIGIKKRIKAIIDSEDKKNPLSDTQIVEILKNEGLEISRRTVAKYRSDLQIPSSSKRKK,soluble fraction (log2),0.335
HMKGKIYFFEEGVDRVGGVERVISTLANEFSKKYKVNVISFYKTRKETFFKYNSDIDITYLSK,soluble fraction (log2),-0.264
HMTYKHLTIDEMKRFLSTREDSQSALVQFARVENVVGNRKGKYAVIKKWFLKNYKEEYNAFLS,soluble fraction (log2),0.0391
HMDSNISVSEALEMVDKGSVKEIIVEGEKLYITNQDGKQYTSSKEVGVSLIELMKDSGIDPIKSDVNIIVK,soluble fraction (log2),-0.703
HMDVLSQYGSRGEEVGKIQTRLKSWGYFSGEVTGYYGSQTTEAVKRFQQKHGLSATGVADRKTLELIGIS,soluble fraction (log2),0.22
HMSDEIQLQFIQISIFKDHPWADMQIKDMNIIPDLLIVMILRDGERIIPNGNTRIMPGDMVIITAMSANT,soluble fraction (log2),-1.7
HMTSSVIIPKLIGKTEEEAKVALAGLNVQVLYETHGDQANGIVIKQSFEEGTKVIKGVSIVITVNKVS,soluble fraction (log2),-0.256
HMNEIDDYDIQLLEYLSKGVSQEAMESVFKQAGITPNSKSTIEKRISKLKIYFKALNTTHLVSITKDLGL,soluble fraction (log2),-1.27
HMITPAARLRALKIRLSVDEVAQIVQRLVNGETVYQIGKPDTGGHAKATVGKINALRLAGQLHFL,soluble fraction (log2),-0.259
HMKITAPLPGTITEIKVKVGDTVKNGDTVVVLEAMKMQNNIEAESNGTVTAIFVNKGDTVMEGDALMTI,soluble fraction (log2),0.22
HMDTNPKVIITMDGVNVRSSASTGSDILFIAEKGEEYELISESGDFYKILYEGNKEGYVASWLVETSE,soluble fraction (log2),-0.022
HMNLIFFSENLSTFRKEKGWTQSELAEKLGVKANTISNYEKGISTPDYKIIAKLRELFEMPTDVLLYSNLS,soluble fraction (log2),-0.97
HMEIESAHAQVLGVREIAASGATQHWIAFRFSDGHQRELLATPSQADVIFRGQQGVVHFAGDRLTGWIPE,soluble fraction (log2),-0.198
HMAPELSGEKLWDAQDVAMFLRVKPTTVWSYVSRDGFPAPVSQAGRAGMWSEPLVVQWYLSRPG,soluble fraction (log2),-0.16
HMEVPDTIIRLRELVAAMPEQWQKVYRLVFMEGLSKAKAGKKIGISDVRVGQLVKKINAAIAGDETLK,soluble fraction (log2),0.0594
HMETISEIWRLIDGLDEIYRVPLTMYYRSNRSVREIAETLGLSARTVETRIYRARRMIREKWSN,soluble fraction (log2),-0.679
HMRRLGTTEIAGILRREISQGILIAKERLPSERSLADTYGVARGTVRQALNLLAREGLVQIRRSSGAYVTF,soluble fraction (log2),-0.299
